Reference: PMC11161584

Biological target: PTRAMP-CSS heterodimer (Plasmodium thrombospondin-related apical merozoite protein with small cystei (P. falciparum (3D7 clone)))
Test: SPR

For “RH5-interacting protein (RIPR), full-length soluble recombinant protein (from UniProt O97302 20-1086) (natural protein)”, the Kd was 4.5 µM.
